This series can be described thus: total protein half-life in vivo (active degradation + dilution); higher = more stable protein.
The mark [1] stands for this setting: E. coli NCM3722 delta-clpP delta-lon delta-hslV, growth: N-lim chemostat, doubling time 6 h.
Setting [2] is: E. coli NCM3722 delta-clpP, growth: N-lim chemostat, doubling time 6 h.
Setting [3] is: E. coli NCM3722 delta-hslV, growth: N-lim chemostat, doubling time 6 h.
Setting [4] is: E. coli NCM3722 delta-lon, growth: N-lim chemostat, doubling time 6 h.
Where [5] appears, read: E. coli NCM3722 delta-smpB, growth: N-lim chemostat, doubling time 6 h.
The mark [6] stands for this setting: wild type E. coli NCM3722, growth: C-lim chemostat, doubling time 3 h.
Setting [7] is: wild type E. coli NCM3722, growth: C-lim chemostat, doubling time 6 h.
The mark [8] stands for this setting: wild type E. coli NCM3722, growth: C-lim chemostat, doubling time 12 h.
The mark [9] stands for this setting: wild type E. coli NCM3722, growth: N-lim chemostat, doubling time 6 h.
[10] abbreviates: wild type E. coli NCM3722, growth: N-lim chemostat, doubling time 12 h.
[11] abbreviates: wild type E. coli NCM3722, growth: P-lim chemostat, doubling time 6 h.
Setting [12] is: wild type E. coli NCM3722, growth: P-lim chemostat, doubling time 12 h.

± gives the standard deviation of the averaged measurements. Bounds are passed on as bounds.

On to “MKQKVVSIGDINVANDLPFVLFGGMNVLESRDLAMRICEHYVTVTQKLGIPYVFKASFDKANRSSIHSYRGPGLEEGMKIFQELKQTFGVKIITDVHEPSQAQPVADVVDVIQLPAFLARQTDLVEAMAKTGAVINVKKPQFVSPGQMGNIVDKFKEGGNEKVILCDRGANFGYDNLVVDMLGFSIMKKVSGNSPVIFDVTHALQCRDPFGAASGGRRAQVAELARAGMAVGLAGLFIEAHPDPEHAKCDGPSALPLAKLEPFLKQMKAIDDLVKGFEELDTSK [P0A715]”, for which the “total protein half-life in vivo” value was found to be 6.1 ± 0.77 h under setting [1]; 5.88 ± 1.5 h under setting [2]; 5.22 ± 0.14 h under setting [3]; 6.19 ± 0.93 h under setting [4]; 4.85 ± 0.15 h under setting [5]; 3.15 ± 0.56 h under setting [6]. Moreover, the “total protein half-life in vivo” value is 6.05 ± 0.51 h under setting [7]; 10.3 ± 1.2 h under setting [8]; 5.01 ± 0.13 h under setting [9]; 9.03 ± 0.37 h under setting [10]; 5.58 ± 0.48 h under setting [11]; 12.9 ± 1.5 h under setting [12].
Regarding “MKATKLVLGAVILGSTLLAGCSSNAKIDQLSSDVQTLNAKVDQLSNDVNAMRSDVQAAKDDAARANQRLDNMATKYRK”, the “total protein half-life in vivo” value runs as follows: under setting [1], 5.79 ± 1.4 h; under setting [2], 6.38 ± 0.67 h; under setting [3], 5.95 ± 0.4 h; under setting [5], 5.03 ± 0.051 h; under setting [6], 3.11 ± 0.35 h; under setting [7], 4.92 ± 0.76 h. Also, the “total protein half-life in vivo” value under setting [8] stood at 11.2 ± 3.2 h; the “total protein half-life in vivo” value under setting [9] worked out at 5.81 ± 0.7 h; the “total protein half-life in vivo” value under setting [10] is 11.7 ± 3.1 h; the “total protein half-life in vivo” value under setting [11] is 5.66 ± 0.3 h; the “total protein half-life in vivo” value under setting [12] was determined as 12.1 ± 0.34 h.
Take “MVIKAQSPAGFAEEYIIESIWNNRFPPGTILPAERELSELIGVTRTTLREVLQRLARDGWLTIQHGKPTKVNNFWETSGLNILETLARLDHESVPQLIDNLLSVRTNISTIFIRTAFRQHPDKAQEVLATANEVADHADAFAELDYNIFRGLAFASGNPIYGLILNGMKGLYTRIGRHYFANPEARSLALGFYHKLSALCSEGAHDQVYETVRRYGHESGEIWHRMQKNLPGDLAIQGR [P0A8V6]”: the “total protein half-life in vivo” value reads like this: under setting [1], 5.22 ± 0.34 h; under setting [2], 5.72 ± 0.28 h; under setting [3], 5.12 ± 0.56 h; under setting [4], 6.05 ± 0.6 h; under setting [5], 5.01 ± 0.18 h; under setting [6], 2.88 ± 0.091 h. In addition, the “total protein half-life in vivo” value under setting [7] was found to be 6.27 ± 0.67 h; the “total protein half-life in vivo” value under setting [8] was 9.92 ± 0.94 h; the “total protein half-life in vivo” value under setting [9] worked out at 5.93 ± 0.23 h; the “total protein half-life in vivo” value under setting [10] amounted to 10.3 ± 0.15 h; the “total protein half-life in vivo” value under setting [11] came to 4.58 ± 0.83 h; the “total protein half-life in vivo” value under setting [12] worked out at 8.62 ± 1.3 h.
Turning to “MDICSRNKKLTIRRPAILVALALLLCSCKSTPPESMVTPPAGSKPPATTQQSSQPMRGIWLATVSRLDWPPVSSVNISNPTSRARVQQQAMIDKLDHLQRLGINTVFFQVKPDGTALWPSKILPWSDLMTGKIGENPGYDPLQFMLDEAHKRGMKVHAWFNPYRVSVNTKPGTIRELNSTLSQQPASVYVQHRDWIRTSGDRFVLDPGIPEVQDWITSIVAEVVSRYPVDGVQFDDYFYTESPGSRLNDNETYRKYGGAFASKADWRRNNTQQLIAKVSHTIKSIKPGVEFGVSPAGVWRNRSHDPLGSDTRGAAAYDESYADTRRWVEQGLLDYIAPQIYWPFSRSAARYDVLAKWWADVVKPTRTRLYIGIAFYKVGEPSKIEPDWMINGGVPELKKQLDLNDAVPEISGTILFREDYLNKPQTQQAVSYLQSRWGS”, the “total protein half-life in vivo” value reads like this: under setting [1], over 8 h; under setting [2], 4.93 ± 1.2 h; under setting [3], 1.61 h; under setting [4], 2.787 ± 0.01 h; under setting [5], 1.73 ± 0.075 h; under setting [9], 1.89 ± 0.55 h. Besides, the “total protein half-life in vivo” value is, setting by setting: under setting [10], 3.44 ± 0.99 h; under setting [11], 2.29 ± 0.57 h; under setting [12], 4.65 ± 0.26 h.
Turning to “MTAKTAPKVTLWEFFQQLGKTFMLPVALLSFCGIMLGIGSSLSSHDVITLIPVLGNPVLQAIFTWMSKIGSFAFSFLPVMFCIAIPLGLARENKGVAAFAGFIGYAVMNLAVNFWLTNKGILPTTDAAVLKANNIQSILGIQSIDTGILGAVIAGIIVWMLHERFHNIRLPDALAFFGGTRFVPIISSLVMGLVGLVIPLVWPIFAMGISGLGHMINSAGDFGPMLFGTGERLLLPFGLHHILVALIRFTDAGGTQEVCGQTVSGALTIFQAQLSCPTTHGFSESATRFLSQGKMPAFLGGLPGAALAMYHCARPENRHKIKGLLISGLIACVVGGTTEPLEFLFLFVAPVLYVIHALLTGLGFTVMSVLGVTIGNTDGNIIDFVVFGILHGLSTKWYMVPVVAAIWFVVYYVIFRFAITRFNLKTPGRDSEVASSIEKAVAGAPGKSGYNVPAILEALGGADNIVSLDNCITRLRLSVKDMSLVNVQALKDNRAIGVVQLNQHNLQVVIGPQVQSVKDEMAGLMHTVQA”, the “total protein half-life in vivo” value under setting [6] amounted to 1.42 ± 0.085 h and the “total protein half-life in vivo” value under setting [8] came to 2.5 ± 0.29 h.
“MNFQQLKIIREAARQDYNLTEVANMLFTSQSGVSRHIRELEDELGIEIFVRRGKRLLGMTEPGKALLVIAERILNEASNVRRLADLFTNDTSGVLTIATTHTQARYSLPEVIKAFRELFPEVRLELIQGTPQEIATLLQNGEADIGIASERLSNDPQLVAFPWFRWHHSLLVPHDHPLTQISPLTLESIAKWPLITYRQGITGRSRIDDAFARKGLLADIVLSAQDSDVIKTYVALGLGIGLVAEQSSGEQEEENLIRLDTRHLFDANTVWLGLKRGQLQRNYVWRFLELCNAGLSVEDIKRQVMESSEEEIDYQI”: the “total protein half-life in vivo” value reads like this: under setting [1], 6.2 ± 1.1 h; under setting [2], 2.47 ± 0.054 h; under setting [3], 0.454 h; under setting [4], 0.652 h; under setting [5], 0.654 h; under setting [6], 1.18 ± 0.11 h. Further, the “total protein half-life in vivo” value worked out at 1.156 ± 0.01 h under setting [7]; 1.86 h under setting [8]; 1.04 ± 0.049 h under setting [9]; 1.02 h under setting [10]; 2.33 ± 0.71 h under setting [11]; 4.48 ± 0.47 h under setting [12].
In the case of “MGMLEARELLCERDERTLFSGLSFTLNAGEWVQITGSNGAGKTTLLRLLTGLSRPDAGEVLWQGQPLHQVRDSYHQNLLWIGHQPGIKTRLTALENLHFYHRDGDTAQCLEALAQAGLAGFEDIPVNQLSAGQQRRVALARLWLTRATLWILDEPFTAIDVNGVDRLTQRMAQHTEQGGIVILTTHQPLNVAESKIRRISLTQTRAA”, the “total protein half-life in vivo” value is 6.22 h under setting [1], 5.33 h under setting [5] and 5.94 ± 0.86 h under setting [9].
As to “MYQDLIRNELNEAAETLANFLKDDANIHAIQRAAVLLADSFKAGGKVLSCGNGGSHCDAMHFAEELTGRYRENRPGYPAIAISDVSHISCVGNDFGFNDIFSRYVEAVGREGDVLLGISTSGNSANVIKAIAAAREKGMKVITLTGKDGGKMAGTADIEIRVPHFGYADRIQEIHIKVIHILIQLIEKEMVK”, the “total protein half-life in vivo” value came to 4.5 ± 0.5 h under setting [1]; 4.44 ± 0.26 h under setting [2]; 4.63 ± 0.36 h under setting [3]; 5.19 ± 0.35 h under setting [4]; 4.26 ± 0.082 h under setting [5]; 3.04 ± 0.14 h under setting [6]. Also, the “total protein half-life in vivo” value under setting [7] was determined as 5.89 ± 0.46 h; the “total protein half-life in vivo” value under setting [8] is 11 ± 0.45 h; the “total protein half-life in vivo” value under setting [9] was determined as 4.37 ± 0.08 h; the “total protein half-life in vivo” value under setting [10] is 7.07 ± 0.52 h; the “total protein half-life in vivo” value under setting [11] was found to be 5.73 ± 0.15 h; the “total protein half-life in vivo” value under setting [12] came to 11.13 ± 0.11 h.
Take “MKWLCSVGIAVSLALQPALADDLFGNHPLTPEARDAFVTELLKKMTVDEKIGQLRLISVGPDNPKEAIREMIKDGQVGAIFNTVTRQDIRAMQDQVMELSRLKIPLFFAYDVLHGQRTVFPISLGLASSFNLDAVKTVGRVSAYEAADDGLNMTWAPMVDVSRDPRWGRASEGFGEDTYLTSTMGKTMVEAMQGKSPADRYSVMTSVKHFAAYGAVEGGKEYNTVDMSPQRLFNDYMPPYKAGLDAGSGAVMVALNSLNGTPATSDSWLLKDVLRDQWGFKGITVSDHGAIKELIKHGTAADPEDAVRVALKSGINMSMSDEYYSKYLPGLIKSGKVTMAELDDAARHVLNVKYDMGLFNDPYSHLGPKESDPVDTNAESRLHRKEAREVARESLVLLKNRLETLPLKKSATIAVVGPLADSKRDVMGSWSAAGVADQSVTVLTGIKNAVGENGKVLYAKGANVTSDKGIIDFLNQYEEAVKVDPRSPQEMIDEAVQTAKQSDVVVAVVGEAQGMAHEASSRTDITIPQSQRDLIAALKATGKPLVLVLMNGRPLALVKEDQQADAILETWFAGTEGGNAIADVLFGDYNPSGKLPMSFPRSVGQIPVYYSHLNTGRPYNADKPNKYTSRYFDEANGALYPFGYGLSYTTFTVSDVKLSAPTMKRDGKVTASVQVTNTGKREGATVVQMYLQDVTASMSRPVKQLKGFEKITLKPGETQTVSFPIDIEALKFWNQQMKYDAEPGKFNVFIGTDSARVKKGEFELL”: the “total protein half-life in vivo” value reads like this: under setting [1], 6.82 ± 0.31 h; under setting [2], 6.82 ± 0.92 h; under setting [3], 6.51 ± 0.073 h; under setting [4], 6.84 ± 0.088 h; under setting [5], 5.91 ± 0.13 h; under setting [6], 3.14 ± 0.092 h. Further, the “total protein half-life in vivo” value was 6.17 ± 0.12 h under setting [7]; 14.2 ± 1.2 h under setting [8]; 6.21 ± 0.43 h under setting [9]; 13.9 ± 0.67 h under setting [10]; 6.21 ± 0.027 h under setting [11]; 14.5 ± 1.1 h under setting [12].

(Values after the supplement of paper PMC11246515.)
